According to the Human Domainome abundance scans (Beltran et al. 2025):
± gives the uncertainty stated by the source.

B1: Homeobox protein cut-like 1, residues 941 to 1008; numbered along this chain, P39880 (parent)
chain: QEVDTIELTRQVKEKLAKNGICQRIFGEKVLGLSQGSVSDMLSRPKPWSKLTQKGREPFIRMQLWLNG

Variants of: B1
Assay: abundance fitness (aPCA) (normalised: wild type 0, dead -1); higher = more abundant; growth selection in yeast, the domain comes from the species named
Conditions: Homo sapiens

| Variant | abundance fitness |
| --- | --- |
| QEVDTIELTRQVKEKLAKNGICQRIFGEKVLGLSQGCVSDMLSRPKPWSKLTQKGREPFIRMQLWLNG [S37C] | 0.066 ± 0.065 |
| QEVDTIELTRQVKEKLAKNGICQRIFGEKVLGLSQGAVSDMLSRPKPWSKLTQKGREPFIRMQLWLNG [S37A] | 0.118 ± 0.061 |
| QEVDTIELTRQVKEKLAKNGICQRIFGEKVLGLSQGDVSDMLSRPKPWSKLTQKGREPFIRMQLWLNG [S37D] | 0.251 ± 0.093 |
| QEVDTIELTRQVKEKLAKNGICQRIFGEKVLGLWQGSVSDMLSRPKPWSKLTQKGREPFIRMQLWLNG [S34W] | -0.059 ± 0.07 |
| QEVDTIELTRQVKEKLAKNGICQRIFGEKVLGLYQGSVSDMLSRPKPWSKLTQKGREPFIRMQLWLNG [S34Y] | -0.108 ± 0.078 |
| QEVDTIELTRQVKEKLAKNGICQRIFGEKVLGLVQGSVSDMLSRPKPWSKLTQKGREPFIRMQLWLNG [S34V] | -0.137 ± 0.059 |
| QEVDTIELTRQVKEKLAKNGICQRIFGEKVLGLTQGSVSDMLSRPKPWSKLTQKGREPFIRMQLWLNG [S34T] | -0.196 ± 0.12 |
| QEVDTIELTRQVKEKLAKNGICQRIFGEKVLGLSIGSVSDMLSRPKPWSKLTQKGREPFIRMQLWLNG [Q35I] | -0.116 ± 0.089 |
| QEVDTIELTRQVKEKLAKNGICQRIFGEKVLGLSVGSVSDMLSRPKPWSKLTQKGREPFIRMQLWLNG [Q35V] | 0 ± 0.049 |
| QEVDTIELTRQVKEKLAKNGICQRIFGEKVLGLSHGSVSDMLSRPKPWSKLTQKGREPFIRMQLWLNG [Q35H] | -0.024 ± 0.11 |
| QEVDTIELTRQVKEKLAKNGICQRIFGEKVLGLSMGSVSDMLSRPKPWSKLTQKGREPFIRMQLWLNG [Q35M] | -0.033 ± 0.062 |
| QEVDTIELTRQVKEKLAKNGICQRIFGEKVLGLSNGSVSDMLSRPKPWSKLTQKGREPFIRMQLWLNG [Q35N] | -0.353 ± 0.14 |
| QEVDTIELTRQVKEKLAKNGICQRIFGEKVLGLSKGSVSDMLSRPKPWSKLTQKGREPFIRMQLWLNG [Q35K] | -0.016 ± 0.067 |
| QEVDTIELTRQVKEKLAKNGICQRIFGEKVLGLSDGSVSDMLSRPKPWSKLTQKGREPFIRMQLWLNG [Q35D] | 0.066 ± 0.11 |
| QEVDTIELTRQVKEKLAKNGICQRIFGEKVLGLSLGSVSDMLSRPKPWSKLTQKGREPFIRMQLWLNG [Q35L] | -0.003 ± 0.046 |
| QEVDTIELTRQVKEKLAKNGICQRIFGEKVLGLSTGSVSDMLSRPKPWSKLTQKGREPFIRMQLWLNG [Q35T] | 0.01 ± 0.067 |
| QEVDTIELTRQVKEKLAKNGICQRIFGEKVLGLSAGSVSDMLSRPKPWSKLTQKGREPFIRMQLWLNG [Q35A] | 0.039 ± 0.06 |
| QEVDTIELTRQVKEKLAKNGICQRIFGEKVLGLSPGSVSDMLSRPKPWSKLTQKGREPFIRMQLWLNG [Q35P] | 0.121 ± 0.068 |
| QEVDTIELTRQVKEKLAKNGICQRIFGEKVLGLSGGSVSDMLSRPKPWSKLTQKGREPFIRMQLWLNG [Q35G] | -0.003 ± 0.059 |
| QEVDTIELTRQVKEKLAKNGICQRIFGEKVLGLSSGSVSDMLSRPKPWSKLTQKGREPFIRMQLWLNG [Q35S] | 0.034 ± 0.062 |

| Variant | abundance fitness |
| --- | --- |
| QEVDTIELTRQVKEKLAKNGICQRIFGEKVLGLSFGSVSDMLSRPKPWSKLTQKGREPFIRMQLWLNG [Q35F] | 0.044 ± 0.13 |
| QEVDTIELTRQVKEKLAKNGICQRIFGEKVLGLSYGSVSDMLSRPKPWSKLTQKGREPFIRMQLWLNG [Q35Y] | 0.015 ± 0.14 |
| QEVDTIELTRQVKEKLAKNGICQRIFGEKVLGLSWGSVSDMLSRPKPWSKLTQKGREPFIRMQLWLNG [Q35W] | 0.064 ± 0.076 |
| QEVDTIELTRQVKEKLAKNGICQRIFGEKVLGLSEGSVSDMLSRPKPWSKLTQKGREPFIRMQLWLNG [Q35E] | 0.124 ± 0.063 |
| QEVDTIELTRQVKEKLAKNGICQRIFGEKVLGLSQFSVSDMLSRPKPWSKLTQKGREPFIRMQLWLNG [G36F] | -0.026 ± 0.076 |
| QEVDTIELTRQVKEKLAKNGICQRIFGEKVLGLSQKSVSDMLSRPKPWSKLTQKGREPFIRMQLWLNG [G36K] | -0.026 ± 0.09 |
| QEVDTIELTRQVKEKLAKNGICQRIFGEKVLGLSQISVSDMLSRPKPWSKLTQKGREPFIRMQLWLNG [G36I] | -0.078 ± 0.1 |
| QEVDTIELTRQVKEKLAKNGICQRIFGEKVLGLSQNSVSDMLSRPKPWSKLTQKGREPFIRMQLWLNG [G36N] | -0.014 ± 0.088 |
| QEVDTIELTRQVKEKLAKNGICQRIFGEKVLGLSQTSVSDMLSRPKPWSKLTQKGREPFIRMQLWLNG [G36T] | 0.003 ± 0.066 |
| QEVDTIELTRQVKEKLAKNGICQRIFGEKVLGLSQMSVSDMLSRPKPWSKLTQKGREPFIRMQLWLNG [G36M] | -0.058 ± 0.069 |
| QEVDTIELTRQVKEKLAKNGICQRIFGEKVLGLSQCSVSDMLSRPKPWSKLTQKGREPFIRMQLWLNG [G36C] | -0.02 ± 0.066 |
| QEVDTIELTRQVKEKLAKNGICQRIFGEKVLGLSQPSVSDMLSRPKPWSKLTQKGREPFIRMQLWLNG [G36P] | -0.055 ± 0.062 |
| QEVDTIELTRQVKEKLAKNGICQRIFGEKVLGLSQVSVSDMLSRPKPWSKLTQKGREPFIRMQLWLNG [G36V] | -0.084 ± 0.055 |
| QEVDTIELTRQVKEKLAKNGICQRIFGEKVLGLSQDSVSDMLSRPKPWSKLTQKGREPFIRMQLWLNG [G36D] | 0.028 ± 0.099 |
| QEVDTIELTRQVKEKLAKNGICQRIFGEKVLGLSQRSVSDMLSRPKPWSKLTQKGREPFIRMQLWLNG [G36R] | 0.033 ± 0.047 |
| QEVDTIELTRQVKEKLAKNGICQRIFGEKVLGLSQASVSDMLSRPKPWSKLTQKGREPFIRMQLWLNG [G36A] | 0.067 ± 0.073 |
| QEVDTIELTRQVKEKLAKNGICQRIFGEKVLGLSQLSVSDMLSRPKPWSKLTQKGREPFIRMQLWLNG [G36L] | -0.025 ± 0.046 |
| QEVDTIELTRQVKEKLAKNGICQRIFGEKVLGLSQSSVSDMLSRPKPWSKLTQKGREPFIRMQLWLNG [G36S] | -0.02 ± 0.053 |
| QEVDTIELTRQVKEKLAKNGICQRIFGEKVLGLSQESVSDMLSRPKPWSKLTQKGREPFIRMQLWLNG [G36E] | 0.107 ± 0.084 |
| QEVDTIELTRQVKEKLAKNGICQRIFGEKVLGLSQQSVSDMLSRPKPWSKLTQKGREPFIRMQLWLNG [G36Q] | 0.039 ± 0.078 |
